To fix the notation:
B1: full-length mouse LIGHT, on cells (mLIGHT-IRES-EGFP) [mouse] / full-length WT mouse HVEM-mCherry, on cells [mouse] (parent complex)
chain 1: MESVVQPSVFVVDGQTDIPFRRLEQNHRRRRCGTVQVSLALVLLLGAGLATQGWFLLRLHQRLGDIVAHLPDGGKGSWEKLIQDQRSHQANPAAHLTGANASLIGIGGPLLWETRLGLAFLRGLTYHDGALVTMEPGYYYVYSKVQLSGVGCPQGLANGLPITHGLYKRTSRYPKELELLVSRRSPCGRANSSRVWWDSSFLGGVVHLEAGEEVVVRVPGNRLVRPRDGTRSYFGAFMV
chain 2: QPSCRQEEFLVGDECCPMCNPGYHVKQVCSEHTGTVCAPCPPQTYTAHANGLSKCLPCGVCDPDMGLLTWQECSSWKDTVCRCIPGYFCENQDGSHCSTCLQHTTCPPGQRVEKRGTHDQDTVCADCLTGTFSLGGTQEECLPWTNCSAFQQEVRRGTNSTDTTCSSQVVYYVVSILLPLVIVGAGIAGFLICTRRHLHTSSVAKELEPFQEQQENTIRFPVTEVGFAETEEETASN

Variants of B1 are the subject of this test. Put plainly: flow cytometry, cell–cell method. A general note: A flow cytometer gives signals particle by particle.
As for chain 2 QPSCAQEEFLVGDECCPMCNPGYHVKQVCSEHTGTVCAPCPPQTYTAHANGLSKCLPCGVCDPDMGLLTWQECSSWKDTVCRCIPGYFCENQDGSHCSTCLQHTTCPPGQRVEKRGTHDQDTVCADCLTGTFSLGGTQEECLPWTNCSAFQQEVRRGTNSTDTTCSSQVVYYVVSILLPLVIVGAGIAGFLICTRRHLHTSSVAKELEPFQEQQENTIRFPVTEVGFAETEEETASN [chain 2 R5A], the ratio to parent turned out to be 0.5. The value for chain 2 QPSCRQEEFLVGDECCPMCNPGYHVAQVCSEHTGTVCAPCPPQTYTAHANGLSKCLPCGVCDPDMGLLTWQECSSWKDTVCRCIPGYFCENQDGSHCSTCLQHTTCPPGQRVEKRGTHDQDTVCADCLTGTFSLGGTQEECLPWTNCSAFQQEVRRGTNSTDTTCSSQVVYYVVSILLPLVIVGAGIAGFLICTRRHLHTSSVAKELEPFQEQQENTIRFPVTEVGFAETEEETASN [chain 2 K26A] was 1. To chain 2 QPSCRQEEFLVGDECCPMCNPGYHVKQVCSEHTDTVCAPCPPQTYTAHANGLSKCLPCGVCDPDMGLLTWQECSSWKDTVCRCIPGYFCENQDGSHCSTCLQHTTCPPGQRVEKRGTHDQDTVCADCLTGTFSLGGTQEECLPWTNCSAFQQEVRRGTNSTDTTCSSQVVYYVVSILLPLVIVGAGIAGFLICTRRHLHTSSVAKELEPFQEQQENTIRFPVTEVGFAETEEETASN [chain 2 G34D] belongs 0.9; to chain 2 QPSCRQEEFLVGDECCPMCNPGYHVKQVCSEHTGTACAPCPPQTYTAHANGLSKCLPCGVCDPDMGLLTWQECSSWKDTVCRCIPGYFCENQDGSHCSTCLQHTTCPPGQRVEKRGTHDQDTVCADCLTGTFSLGGTQEECLPWTNCSAFQQEVRRGTNSTDTTCSSQVVYYVVSILLPLVIVGAGIAGFLICTRRHLHTSSVAKELEPFQEQQENTIRFPVTEVGFAETEEETASN [chain 2 V36A], 1; to chain 2 QPSCRQEEFLVGDECCPMCNPGYHVKQVCSEHTGTDCAPCPPQTYTAHANGLSKCLPCGVCDPDMGLLTWQECSSWKDTVCRCIPGYFCENQDGSHCSTCLQHTTCPPGQRVEKRGTHDQDTVCADCLTGTFSLGGTQEECLPWTNCSAFQQEVRRGTNSTDTTCSSQVVYYVVSILLPLVIVGAGIAGFLICTRRHLHTSSVAKELEPFQEQQENTIRFPVTEVGFAETEEETASN [chain 2 V36D], 0.9. For the variant chain 2 QPSCRQEEFLVGDECCPMCNPGYHVKQVCSEHTGTVCDPCPPQTYTAHANGLSKCLPCGVCDPDMGLLTWQECSSWKDTVCRCIPGYFCENQDGSHCSTCLQHTTCPPGQRVEKRGTHDQDTVCADCLTGTFSLGGTQEECLPWTNCSAFQQEVRRGTNSTDTTCSSQVVYYVVSILLPLVIVGAGIAGFLICTRRHLHTSSVAKELEPFQEQQENTIRFPVTEVGFAETEEETASN [chain 2 A38D], the ratio to parent turned out to be 1.1. With chain 2 QPSCRQEEFLVGDECCPMCNPGYHVKQVCSEHTGTVCWPCPPQTYTAHANGLSKCLPCGVCDPDMGLLTWQECSSWKDTVCRCIPGYFCENQDGSHCSTCLQHTTCPPGQRVEKRGTHDQDTVCADCLTGTFSLGGTQEECLPWTNCSAFQQEVRRGTNSTDTTCSSQVVYYVVSILLPLVIVGAGIAGFLICTRRHLHTSSVAKELEPFQEQQENTIRFPVTEVGFAETEEETASN [chain 2 A38W], the ratio to parent came to 0.9. The value for chain 2 QPSCRQEEFLVGDECCPDCNPGYHVKQVCSEHTGTVCAPCPPQTYTAHANGLSKCLPCGVCDPDMGLLTWQECSSWKDTVCRCIPGYFCENQDGSHCSTCLQHTTCPPGQRVEKRGTHDQDTVCADCLTGTFSLGGTQEECLPWTNCSAFQQEVRRGTNSTDTTCSSQVVYYVVSILLPLVIVGAGIAGFLICTRRHLHTSSVAKELEPFQEQQENTIRFPVTEVGFAETEEETASN [chain 2 M18D] was 0.9; that for chain 2 QPSCRQEAFLVGDECCPMCNPGYHVKQVCSEHTGTVCAPCPPQTYTAHANGLSKCLPCGVCDPDMGLLTWQECSSWKDTVCRCIPGYFCENQDGSHCSTCLQHTTCPPGQRVEKRGTHDQDTVCADCLTGTFSLGGTQEECLPWTNCSAFQQEVRRGTNSTDTTCSSQVVYYVVSILLPLVIVGAGIAGFLICTRRHLHTSSVAKELEPFQEQQENTIRFPVTEVGFAETEEETASN [chain 2 E8A] was 0.9. As for chain 2 QPSCRQEEFLVGDECCAMCNPGYHVKQVCSEHTGTVCAPCPPQTYTAHANGLSKCLPCGVCDPDMGLLTWQECSSWKDTVCRCIPGYFCENQDGSHCSTCLQHTTCPPGQRVEKRGTHDQDTVCADCLTGTFSLGGTQEECLPWTNCSAFQQEVRRGTNSTDTTCSSQVVYYVVSILLPLVIVGAGIAGFLICTRRHLHTSSVAKELEPFQEQQENTIRFPVTEVGFAETEEETASN [chain 2 P17A], the ratio to parent stood at 0.8. Take chain 2 QPSCRQEEFLVGDECCPMCNPGYHVKQVCSEHTGTVCAPCPPQTYTADANGLSKCLPCGVCDPDMGLLTWQECSSWKDTVCRCIPGYFCENQDGSHCSTCLQHTTCPPGQRVEKRGTHDQDTVCADCLTGTFSLGGTQEECLPWTNCSAFQQEVRRGTNSTDTTCSSQVVYYVVSILLPLVIVGAGIAGFLICTRRHLHTSSVAKELEPFQEQQENTIRFPVTEVGFAETEEETASN [chain 2 H48D]: the ratio to parent was determined as 0.8. To chain 2 QPSCRQEEFLVGDECCPMCNPGYHVKQVCSEHTGTVCAPCPPQTYTARANGLSKCLPCGVCDPDMGLLTWQECSSWKDTVCRCIPGYFCENQDGSHCSTCLQHTTCPPGQRVEKRGTHDQDTVCADCLTGTFSLGGTQEECLPWTNCSAFQQEVRRGTNSTDTTCSSQVVYYVVSILLPLVIVGAGIAGFLICTRRHLHTSSVAKELEPFQEQQENTIRFPVTEVGFAETEEETASN [chain 2 H48R] belongs 1; to chain 2 QPSCRQEEFLVGDECCPMCNPGYHVKQVCSEHTGTVCAPCPPQTYTAHANGLSKCLPCGVCDPDMGLLTWQECSSWKDTVCRCIPGYFCENQDGSHCSACLQHTTCPPGQRVEKRGTHDQDTVCADCLTGTFSLGGTQEECLPWTNCSAFQQEVRRGTNSTDTTCSSQVVYYVVSILLPLVIVGAGIAGFLICTRRHLHTSSVAKELEPFQEQQENTIRFPVTEVGFAETEEETASN [chain 2 T99A], 0.8. The value for chain 2 QPSCRQEEFLVGDECCPMCNPGYHVKQVCSEHTGTVCAPCPPQTYTAHANGLSKCLPCGVCDPDMGLLTWQECSSWKDTVCRCIPGYFCENQDGSHCSDCLQHTTCPPGQRVEKRGTHDQDTVCADCLTGTFSLGGTQEECLPWTNCSAFQQEVRRGTNSTDTTCSSQVVYYVVSILLPLVIVGAGIAGFLICTRRHLHTSSVAKELEPFQEQQENTIRFPVTEVGFAETEEETASN [chain 2 T99D] was 0.7. In the case of chain 2 QPSCRQEEFLVGDECCPMCNPGYHVKQVCSEHTGTVCAPCPPQTYTAHANGDSKCLPCGVCDPDMGLLTWQECSSWKDTVCRCIPGYFCENQDGSHCSTCLQHTTCPPGQRVEKRGTHDQDTVCADCLTGTFSLGGTQEECLPWTNCSAFQQEVRRGTNSTDTTCSSQVVYYVVSILLPLVIVGAGIAGFLICTRRHLHTSSVAKELEPFQEQQENTIRFPVTEVGFAETEEETASN [chain 2 L52D], the ratio to parent was determined as 0.4. To chain 2 QPSCRQEEFLVGDECCPMCNPGYHVKQVCSEHTGTVCAPCPPQTYTAHANGASKCLPCGVCDPDMGLLTWQECSSWKDTVCRCIPGYFCENQDGSHCSTCLQHTTCPPGQRVEKRGTHDQDTVCADCLTGTFSLGGTQEECLPWTNCSAFQQEVRRGTNSTDTTCSSQVVYYVVSILLPLVIVGAGIAGFLICTRRHLHTSSVAKELEPFQEQQENTIRFPVTEVGFAETEEETASN [chain 2 L52A] belongs 0.7; to chain 2 QPSCRQEEFLVGDECCPMCNPGYHVKQVCAEHTGTVCAPCPPQTYTAHANGLSKCLPCGVCDPDMGLLTWQECSSWKDTVCRCIPGYFCENQDGSHCSTCLQHTTCPPGQRVEKRGTHDQDTVCADCLTGTFSLGGTQEECLPWTNCSAFQQEVRRGTNSTDTTCSSQVVYYVVSILLPLVIVGAGIAGFLICTRRHLHTSSVAKELEPFQEQQENTIRFPVTEVGFAETEEETASN [chain 2 S30A], 1.

As for chain 2 QPSCRQEEFLVGDECCPMCNPGYHVKQVCDEHTGTVCAPCPPQTYTAHANGLSKCLPCGVCDPDMGLLTWQECSSWKDTVCRCIPGYFCENQDGSHCSTCLQHTTCPPGQRVEKRGTHDQDTVCADCLTGTFSLGGTQEECLPWTNCSAFQQEVRRGTNSTDTTCSSQVVYYVVSILLPLVIVGAGIAGFLICTRRHLHTSSVAKELEPFQEQQENTIRFPVTEVGFAETEEETASN [chain 2 S30D], the ratio to parent came out at 0.8. The value for chain 2 QPSCRQEEFLVGDECCPMCNPGYHVKQVCHEHTGTVCAPCPPQTYTAHANGLSKCLPCGVCDPDMGLLTWQECSSWKDTVCRCIPGYFCENQDGSHCSTCLQHTTCPPGQRVEKRGTHDQDTVCADCLTGTFSLGGTQEECLPWTNCSAFQQEVRRGTNSTDTTCSSQVVYYVVSILLPLVIVGAGIAGFLICTRRHLHTSSVAKELEPFQEQQENTIRFPVTEVGFAETEEETASN [chain 2 S30H] was 1.1; that for chain 2 QPSCRQEEFLVGDECCPMCNPGYHVKQVCSEHTGTVCAPCPPQTYTAHADGLSKCLPCGVCDPDMGLLTWQECSSWKDTVCRCIPGYFCENQDGSHCSTCLQHTTCPPGQRVEKRGTHDQDTVCADCLTGTFSLGGTQEECLPWTNCSAFQQEVRRGTNSTDTTCSSQVVYYVVSILLPLVIVGAGIAGFLICTRRHLHTSSVAKELEPFQEQQENTIRFPVTEVGFAETEEETASN [chain 2 N50D] was 0.5. To chain 2 QPSCRQEEFLVGDECCPMCNPGYHVKQVCSEHTGTVCAPCPPQTYTAHANGLSKCLPCGVCDPDMGLLTWQECSSWKDTVCRCIPGYFCENQDGSDCSTCLQHTTCPPGQRVEKRGTHDQDTVCADCLTGTFSLGGTQEECLPWTNCSAFQQEVRRGTNSTDTTCSSQVVYYVVSILLPLVIVGAGIAGFLICTRRHLHTSSVAKELEPFQEQQENTIRFPVTEVGFAETEEETASN [chain 2 H96D] belongs 0.7; to chain 2 QPSCRQEEFLVGDECCPMCNPGYHVKQVCSEHTGTVCAPCPPQTYTAHDNGLSKCLPCGVCDPDMGLLTWQECSSWKDTVCRCIPGYFCENQDGSHCSTCLQHTTCPPGQRVEKRGTHDQDTVCADCLTGTFSLGGTQEECLPWTNCSAFQQEVRRGTNSTDTTCSSQVVYYVVSILLPLVIVGAGIAGFLICTRRHLHTSSVAKELEPFQEQQENTIRFPVTEVGFAETEEETASN [chain 2 A49D], 1.2.

The record behind these values is paper PMC8558838 (The Journal of Experimental Medicine, 2021).
